The target in experiment [1] is T1, control peptide 1 (…) displayed by HLA-A2 on T2 cells (human).
T1 construct: whole, on cells; also called Ctrl.1
Briefly: flow cytometry on peptide-pulsed T2 cells, relative MFI (binding over peptide loading). As for the experimental part: (§1) TAP-deficient T2 cells were pulsed with HLA-A2-restricted peptides (MAGE-A4 or control peptides) and incubated with MAGE-A4 binders followed by fluorophore-labeled specific detection antibodies and analysis by flow cytometry.
(§2) Briefly, T-B hybrid T2 cells were incubated with serum-free RPMI1640 medium containing MAGE-A4 or control peptides. […] Peptide loading efficiency was verified by using the ratio between median fluorescent intensity (MFI) of HLA-A2-binding antibody BB7.2 on peptide loaded T2 cells and MFI of unloaded T2 cells (>1). T2 cells were incubated with each of the specific antibodies followed by fluorophore-labeled detection antibodies (anti-kappa light chain or anti-Flag). The cells were fixed and fluorescence was measured by flow cytometry.

Experiment [2] concerns the target T2, control peptide 2 (…) displayed by HLA-A2 on T2 cells (human).
T2 construct: whole, on cells; also called Ctrl.2
The description is as above. As for the experimental part: as §1, §2

In experiment [3] the target is T3, HLA-A2/MAGE-A4 complex, recombinant (HLA-A*02:01 extracellular domain, human b2m, MAGE-A4 peptide 230-239 …) (human, UniProt P04439 25-299 at identity 0.94); P61769 21-119).
T3 construct: also called MAGE-A4 pMHC; MAGE-A4/HLA-A2 complex
Briefly: direct ELISA, plate coated with HLA-A2/MAGE-A4 complex, serial dilution of the antibody. As for the experimental part:
All available hits were evaluated for their ability to bind MAGE-A4/HLA-A2 complex and a control peptide/HLA-A2 complex in a direct binding ELISA assay. […] Briefly, 96 well ELISA plates were coated with purified human MAGE-A4/HLA-A2 complex or control HLA-A2 complex. Serial dilutions of antibody molecules were added to the plate and detected by an anti-kappa light chain-HRP (Invitrogen) or a purified rabbit anti-VHH (QVQ) followed by goat anti-rabbit IgG(H+L) HRP (Southern Biotech). […] 5B.
Background: In an ELISA, binding on a coated surface is turned into a signal by an enzyme label.

Experiment [4] concerns the target T4, control peptide 3 (…) displayed by HLA-A2 on T2 cells (human).
T4 construct: whole, on cells; also called Ctrl.3
Briefly: flow cytometry on peptide-pulsed T2 cells, relative MFI (binding over peptide loading). The procedure: as §1, §2

B1: M0709 (Fab, V domains shown)
VH: QSVKESGGRLVTPGTPLTLTCTVSGFSLSNYAMSWVRQAPGKGLEYIGIVSSGGTTYYASWAKGRFTISKTSTTVDLKITSPTTEDTATYFCAKDLYYGPTTYSAFNLWGQGTLVTVSS
VL: SELVLTQPQSVSGSLGQTVSISCKRARDNIEDYYVHWYQQHPGKTPTIVIHKDDQRPSGVPDRFSGSIDSTSNSASLTITGLLAEDEADYFCQSFDNDASPVFGGGTQLTVTG
For B1, the binding result in experiment [1] and in experiment [2] was “binds” throughout.

B2: M0710 (Fab, V domains shown)
VH: QSVKESGGRLVTPGTPLTLTCTVSGFSLSNYAMSWVRQAPGKGLEYIGIVSSGGTTYYASWAKGRFTISKTSTTVDLKITSPTTEDTATYFCAKDLYYGPTTYSAFNLWGQGTLVTVSS
VL: SELVLTQPQSVSGSLGQTVSISCKRARDNIEDYYVHWYQQYPGKTPTIVIYKDDQRPSGVPDRFSGSIDSTSNSASLTITGLLAEDEADYFCQSFDNNANVVFGGGTQLTVTG
Consider B2, for which, in experiment [3], the binding result is listed as “binds”.

B3: M0742 (VHH)
VHH: EVQLVESGGGLVQPRGSLRLSCAASGFTFSNSGMSWVRQAPGKGLEWVSSISSGGSSTTYLDSVKGRFTISRDNAKNTLYLQMNSLKPEDTAVYYCSWADLRGRGTQVTVSS
notes: Llama-derived VHH; detected with anti-VHH (ELISA) or anti-Flag (flow)
As usually defined, the EC50 (read off the curve) is the concentration that produces a half-maximal response. Regarding B3, the binding result in experiment [1] is recorded as “no binding”; in experiment [2], “binds”. For the same molecule, the “EC50 (read off the curve)” value in experiment [3] is approximately 0.02 µg/mL.

B4: M0766 (Fab, V domains shown)
VH: PEQLEESGGGLVTPGGVLTLTCTASGFSFSSYGVNWVRQAPGKGLEWIGFIFGDGTTYYANWAKGRFTISKTSTTVDLKMTSPTTEDTATYFCARDGYGGYDYIINLWGQGTLVTVSS
VL: AQVLTQTPASVSAAVGGTVSISCQSSQSVVNNNWLAWYQQKPGQPPKLLIYKASTLESGVPSRFKGSGSGTQFTLTISGVQADDAATYYCLGEFSCSSADCHAFGGGTELEILR
With B4, the binding result in experiment [3] was “binds”.

B5: M0739 (VHH)
VHH: EVQLVESGGGSVQPGGSLRLSCAASGFTFSRSTMSWVRQAPGKGLEWVSSISGSGGVTTYTTSVKGRFTISRDNAKNLMYLQMNSLNPEDTAVYYCANGDNRGPGTQVTVSS
notes: as for B3
As for B5, the binding result was “no binding” in experiment [1], “binds” in experiment [2] and “binds” in experiment [3].

B6: M0762 (Fab, V domains shown)
VH: QSVKESGGRLVTPGTPLTLTCTASGFTISSSAISWVRQAPGKGLEYIGIIRSGGTTDYASWAKGRFAISKTSTTVDLKITSPTTEDTATYFCARDPPYITSTYFDLWGQGTLVTVSS
VL: SELVLTQPQSVSGSLGQTVSISCKRARDSVESYDVHWYQQHPGKTPTIVIYKDDQRPSGVPDRFSGSIDSTSNSASLTITGLLAEDEADYFCQSFDGDAVVFGGGTQLTVTG
Consider B6, for which, in experiment [3], the binding result is recorded as “binds”.

B7: M0747 (VHH)
VHH: EVQLVESGGGLAQAGGSLRVSCVASGRPFTKYAWGWFRQAPGKAREFVATITWDGGKTDYADSVKGRFTISKDSAENSIYLQMNSLKPEDTAVYYCAADRNYCVGHRCYVRPDDYDYWGQGTQVTVSS
notes: as for B3
For B7, the binding result is listed as “no binding” in experiment [1], “no binding” in experiment [2], “no binding” in experiment [4] and “binds” in experiment [3].

B8: M0743 (VHH)
VHH: EVQLVESGGGLVQPGGSLRLSCVASGFTFSWYTMNWVRQAPGKGFEWVASIGSGGTPTTYRESVKGRFTISRDNAKSTLYLQMNSLKPEDTAVYHCENGQARGQGTQVTVSS
notes: as for B3
As to B8, the binding result in experiment [1], in experiment [2] and in experiment [4] was “no binding” in each case. For the same molecule, the half-maximal effective concentration (EC50 (read off the curve)) in experiment [3] was approximately 0.003 µg/mL.
